Molecular target: T1, Aβ1-28 wild type (human)
T1 construct: amyloid-β (Aβ) residues 1-28, cut from the amyloid β precursor protein (APP); numbers count on: the Aβ peptide (position 2 of Aβ is position 673 of APP); Assembles into fibrils; also called Aβ1-28WT; WT; source: synthetic peptide (Fmoc solid-phase synthesis, purified by reverse-phase HPLC, purity >95%)
Assay: neutron diffraction + other: synchrotron X-ray fibre diffraction; peptides or their mixtures dissolved in ddH2O at 10 mg/mL, dried four days at ambient temperature on quartz in a 7 T static magnetic field, re-humidified against 100% D2O for about 14 days; small- and wide-angle patterns
Details: both partners purified

B1: Aβ1-28A2V (peptide)
peptide: DVEFRHDSGYEVHHQKLVFFAEDVGSNK
notes: amyloid-β (Aβ) residues 1-28 with the naturally occurring A-to-V substitution at position 2 of Aβ (A673V in APP); numbers count on: the Aβ peptide (position 2 of Aβ is position 673 of APP); also called mutated peptide Aβ1-28A2V; source: synthetic peptide (Fmoc solid-phase synthesis, purified by reverse-phase HPLC, purity >95%)
**Q.** Does B1 bind?
**A.** Result: binds
